Results: publication PMC6212772

Assays:
[1] = target: T1, GST-ZBTB24 zinc finger domain (UniProt O43167 294-512); assay: EMSA
[2] = target: T1, GST-ZBTB24 zinc finger domain; assay: EMSA; remark: listed apart in the source
[3] = target: T1, GST-ZBTB24 zinc finger domain; assay: competition

T1 sequence (O43167 294-512): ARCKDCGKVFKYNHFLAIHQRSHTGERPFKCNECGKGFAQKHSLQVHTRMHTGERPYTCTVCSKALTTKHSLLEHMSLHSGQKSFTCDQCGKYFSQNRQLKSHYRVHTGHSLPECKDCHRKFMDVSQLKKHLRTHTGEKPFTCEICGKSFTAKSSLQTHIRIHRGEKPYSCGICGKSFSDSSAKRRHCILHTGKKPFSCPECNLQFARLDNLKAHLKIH

Binder | binding result [1] | further results
GAPDH promoter (dsDNA) DNA 1: GAGCCTGGCGGGAGGCGGGGTCCGAGTCACCGCCTGCCGC DNA 2: GCGGCAGGCGGTGACTCGGACCCCGCCTCCCGCCAGGCTC | no binding | –
CDCA7 promoter (dsDNA) DNA 1: GGCCGTTACCACAGCTTGCAGGACCTGTGTCCCAACGCGG DNA 2: CCGCGTTGGGACACAGGTCCTGCAAGCTGTGGTAACGGCC | binds | –
OSTC promoter (dsDNA) DNA 1: GTTAGAAGTCCCGCAGGTCCTTGAAGGTACACAAATCACC DNA 2: GGTGATTTGTGTACCTTCAAGGACCTGCGGGACTTCTAAC | binds | –
CDCA7 outside promoter motif (dsDNA) DNA 1: GGGTGCTGGACGCAGGCGGGCGCGGGCCGACCCTCTCCAA DNA 2: TTGGAGAGGGTCGGCCCGCGCCCGCCTGCGTCCAGCACCC | no binding | –
CAMKMT promoter wt (dsDNA) DNA 1: GGGAAGAAGTTGGCAGGTCCTGGCAGGGGACGAGCTGCGGC DNA 2: GCCGCAGCTCGTCCCCTGCCAGGACCTGCCAACTTCTTCCC | – | binding result [2]: binds
CAMKMT promoter mut2 (dsDNA) DNA 1: GGGAAGAAGTTGGCAGATACTGGCAGTGGACGAGCTGCGGC DNA 2: GCCGCAGCTCGTCCACTGCCAGTATCTGCCAACTTCTTCCC | – | binding result [3]: no binding
CAMKMT promoter mut1 (dsDNA) DNA 1: GGGAAGAAGTTGGCAGGTACTGGCAGGGGACGAGCTGCGGC DNA 2: GCCGCAGCTCGTCCCCTGCCAGTACCTGCCAACTTCTTCCC | – | binding result [3]: no binding
